The record followed here is paper PMC3273806 (Nucleic Acids Research, 2011).

The target in test [1] is human RAD18, wild type, His-tagged or FLAG-tagged (human, UniProt Q9NS91 1-495). Nature of the test: pull-down.
A further test addresses human RAD6A (human, UniProt P49459 1-152). The experiment in a line: pull-down.

B1: RAD18^ΔC1 (residues 1-341), His-tagged or FLAG-tagged (domain or fragment)
chain: MDSLAESRWPPGLAVMKTIDDLLRCGICFEYFNIAMIIPQCSHNYCSLCIRKFLSYKTQCPTCCVTVTEPDLKNNRILDELVKSLNFARNHLLQFALESPAKSPASSSSKNLAVKVYTPVASRQSLKQGSRLMDNFLIREMSGSTSELLIKENKSKFSPQKEASPAAKTKETRSVEEIAPDPSEAKRPEPPSTSTLKQVTKVDCPVCGVNIPESHINKHLDSCLSREEKKESLRSSVHKRKPLPKTVYNLLSDRDLKKKLKEHGLSIQGNKQQLIKRHQEFVHMYNAQCDALHPKSAAEIVREIENIEKTRMRLEASKLNESVMVFTKDQTEKEIDEIHSK
As for B1, the binding result in test [1] is given as “binds”.

B2: ^HisRAD18^ΔN1 (residues 113-495) (domain or fragment)
chain: AVKVYTPVASRQSLKQGSRLMDNFLIREMSGSTSELLIKENKSKFSPQKEASPAAKTKETRSVEEIAPDPSEAKRPEPPSTSTLKQVTKVDCPVCGVNIPESHINKHLDSCLSREEKKESLRSSVHKRKPLPKTVYNLLSDRDLKKKLKEHGLSIQGNKQQLIKRHQEFVHMYNAQCDALHPKSAAEIVREIENIEKTRMRLEASKLNESVMVFTKDQTEKEIDEIHSKYRKKHKSEFQLLVDQARKGYKKIAGMSQKTVTITKEDESTEKLSSVCMGQEDNMTSVTNHFSQSKLDSPEELEPDREEDSSSCIDIQEVLSSSESDSCNSSSSDIIRDLLEEEEAWEASHKNDLQDTEISPRQNRRTRAAESAEIEPRNKRNRN
On to B2, for which the binding result with human RAD6A is “binds”.
